No end group written: not given here. *: point of attachment. Dodecyl = CCCCCCCCCCCC*
T1: Rat recombinant TF (Rattus norvegicus, UniProt P42533)
T1 construct: purchased Cloud Clone Corp
T1 sequence (P42533 29-295): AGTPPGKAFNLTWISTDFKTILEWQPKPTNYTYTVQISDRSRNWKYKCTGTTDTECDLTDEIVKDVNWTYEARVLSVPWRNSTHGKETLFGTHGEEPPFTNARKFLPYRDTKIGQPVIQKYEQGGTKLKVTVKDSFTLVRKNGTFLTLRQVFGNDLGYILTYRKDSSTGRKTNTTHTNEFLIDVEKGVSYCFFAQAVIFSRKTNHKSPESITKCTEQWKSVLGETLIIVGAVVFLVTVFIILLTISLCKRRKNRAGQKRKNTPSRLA

B1: recombinant TF: rat recombinant tissue factor (Cloud Clone Corp) coated on wells as positive control (protein)
chain: AGTPPGKAFNLTWISTDFKTILEWQPKPTNYTYTVQISDRSRNWKYKCTGTTDTECDLTDEIVKDVNWTYEARVLSVPWRNSTHGKETLFGTHGEEPPFTNARKFLPYRDTKIGQPVIQKYEQGGTKLKVTVKDSFTLVRKNGTFLTLRQVFGNDLGYILTYRKDSSTGRKTNTTHTNEFLIDVEKGVSYCFFAQAVIFSRKTNHKSPESITKCTEQWKSVLGE

Experiments:
Rat recombinant TF = target: T1, Rat recombinant TF; experiment: Plate-based in vitro binding assay of TF-targeting peptides to recombinant TF; details: for absorbance (binding to recombinant TF): 450 nm, coated peptides incubated with 75 ng recombinant TF; for dose response of absorbance with recombinant TF: peptide-coated plates, increasing concentrations of recombinant TF
Procedure: A plate-based binding assay for the TF-targeting peptides was performed as follows. Peptides were dissolved in water at a concentration of 60 μM and coated onto BD Falcon OptiLux 96-well plates (BD Biosciences, Franklin Lakes, N.J.) by incubating them at 37° C. for 2 hours, then at 4° C. overnight. Next, wells were blocked using Superblock phosphate buffered saline (PBS) blocking buffer (200 μL per well, Thermo Scientific, Waltham, Mass.) for 2 hours at room temperature, then washed two times with water. Rat recombinant TF (Cloud Clone Corp, Houston, Tex.) was added in amounts of 12.5-75.0 ng, dissolved in PBS for a total volume of 50 μL/well and incubated at room temperature for 4 hours. Plates were rinsed with water twice, then blocked with Superblock PBS blocking buffer for 30 minutes at room temperature. Colorimetric immunodetection was then performed by incubating wells with anti-TF antibody (Cat. #: ab104513, rabbit polyclonal, Abcam, Cambridge, Mass.) dissolved in Superblock PBS blocking buffer (1:5000) at 4° C. overnight. Wells were washed in water 4 times, and then incubated with a secondary goat-anti-rabbit antibody (Thermo scientific, Rockford, Ill.) conjugated to horseradish peroxidase and dissolved 1:5000 in Superblock PBS blocking buffer for 2 hours at room temperature. Wells were then rinsed 4 times in water, developed using TMB developing solution (TMB Substrate, Thermo Scientific, Waltham, Mass.) for 15 minutes, then stopped with 0.18 M H2SO4 (Sigma Aldrich, St. Louis, Mo.). Plates were immediately read using an Epoch plate reader (BioTek, Winooski, Vt.) at 450 nm. Wells were coated in triplicate, and the assay was performed three times. Treatment groups were each peptide as stated above. Negative controls were wells coated with blocking buffer rather than peptide, and positive controls were wells coated with rat recombinant TF (Cloud Clone Corp) at 12.5 and 25 ng/well.

Sprague Dawley rats = experiment: Liver punch hemorrhage model, blood loss; type: in vivo; details: % total blood volume, rat liver punch model, 30 minutes, 2.5 mg PA by tail vein
Procedure: (§1) At the end of 30 minutes, animals were euthanized.
Blood loss was presented as % total blood volume. […] Data were log transformed for analysis.

injured liver = experiment: Fluorescent microscopy of nanofiber binding in liver and other organs after liver punch injury; type: in vivo; details: rat liver punch model, tail vein injection, fluorescently labeled nanofiber
Procedure: as §1
In situ perfusion with 400 mL of a PBS solution was performed, and organs including the kidneys, spleen, lung, uninjured liver, and injured lobe of the liver were collected for tissue processing. Samples were fixed in 2% paraformaldehyde for 2 hours, then 30% sucrose overnight. Samples were then frozen in Tissue-Tek OTC compound (Sakura Finetek, Torrance, Calif.) over liquid nitrogen and stored at −20° C. A LEICA CM 1950 cryostat (LEICA Biosystems, Buffalo Grove, Ill.) was used to cut samples into 10-μm sections, which were stained with 4′,6-diamidino-2-phenylindole (DAPI, Invitrogen, Grand Island, N.Y.), and fixed with ProLong® Gold antifade reagent (Life Technologies, Eugene, Oreg.). […]
Digital images were acquired using a Zeiss LSM-510 microscope (Hallbergmoos, Germany) with a 20× objective. The HE CY3 filter (Zeiss filter #43) using excitation and emission wavelength 550-575 nm and 605-670 nm, respectively, was used to assess PA fluorescence. […] The green fluorescent protein filter (Zeiss filter #38) using excitation and emission wavelengths of 470-495 nm and 525-550 nm, respectively, was used to assess tissue auto-fluorescence.

Molecule | absorbance (binding to recombinant TF) (Rat recombinant TF) | dose response of absorbance with recombinant TF (Rat recombinant TF) | total blood loss (Sprague Dawley rats) [%] | fluorescence in injured liver (injured liver)
RTLAFVRFK | 0.28±0.03 | increased absorbance with increasing concentrations of recombinant TF | – | –
A2V2K2—C12 (KKAAVVK) [non-specific peptide, non-specific peptide, consisting of the filler peptide, selected as a non-targeted control] | 0.2±0.03 | – | – | –
KKAAVV(K)-C12 (KKAAVVK(Dodecyl)-NH2; not fully specified; printed as KKAAVV(K)-C12) [non-specific PA nanofiber] | – | – | 21±2 | No fluorescence was observed
EGRNCETHKDDQL | 0.19±0.3 | – | – | –
RLMTQDCLQQRSK | 0.29±0.02 | increased absorbance with increasing concentrations of recombinant TF | – | –
B1 | 0.32±0.01 | – | – | –

Source: patent US10738294B2, “Tissue factor (TF)—targeted nanotherapy” (Northwestern University, priority 2016, dated 2020)
